In PMC7668044, “Insights into bacterial cell division from a structure of EnvC bound to the FtsX periplasmic domain” (Proceedings of the National Academy of Sciences of the …, 2020):

Biological target: T1, mature EnvC (murein hydrolase activator), non-tagged, co-expressed for crystallisation (E. coli, UniProt P37690 35-419)
T1 construct: EnvC, E. coli, mature protein
T1 sequence (looked up): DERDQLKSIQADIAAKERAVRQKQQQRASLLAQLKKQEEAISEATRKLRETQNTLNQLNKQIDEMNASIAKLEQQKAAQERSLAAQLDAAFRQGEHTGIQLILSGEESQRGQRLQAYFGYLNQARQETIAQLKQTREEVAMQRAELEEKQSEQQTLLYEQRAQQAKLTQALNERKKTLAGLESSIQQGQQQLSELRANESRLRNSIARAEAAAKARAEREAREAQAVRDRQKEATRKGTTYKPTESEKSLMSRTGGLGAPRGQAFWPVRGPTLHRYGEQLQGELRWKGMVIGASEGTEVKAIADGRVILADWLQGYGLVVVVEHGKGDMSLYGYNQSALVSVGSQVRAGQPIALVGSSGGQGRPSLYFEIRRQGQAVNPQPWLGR
Experiment: crystal structure; X-ray, 2.1 Å, space group P2(1)2(1)2(1); His-tagged FtsX periplasmic domain and non-tagged EnvC coexpressed and copurified by Ni-IMAC; molecular replacement
Conditions: both partners purified

B1: FtsX periplasmic domain, histidine-tagged, co-expressed for crystallisation (domain or fragment, E. coli)
chain: QITVYLQKTLDDDAAAGVVAQLQAEQGVEKVNYLSREDALGEFRNWSGFGGALDMLEENPLPAVAVVIPKLDFQGTESLNTLRDRITQINGIDEVRMDDS
notes: FtsX periplasmic domain (between the first and second transmembrane helix), E. coli; The two-hybrid construct of the same domain is residues 110 to 209; also called FtsX I; FtsX II; source: E. coli C43(DE3), coexpressed with non-tagged EnvC from a pETDuet1-based vector, copurified by Ni-IMAC
  stoichiometry N: 2 FtsX periplasmic domains per EnvC
